# Experimental data: PMC3137622, “Mechanisms of Allergen-Antibody Interaction of Cockroach Allergen Bla g 2 with Monoclonal Antibodies That Inhibit IgE Antibody Binding” (PLoS ONE, 2011)
# Biological target: T1, natural Bla g 2 (Blattella germanica, UniProt P54958)
# T1 construct: Glycosylated natural allergen; also called nBla g 2; natural allergen
# Assay: ELISA; two-site dose-response: mAb 7C11 or 4C3 as capture antibody, allergen titrated, detection with biotinylated mAb 4C3 (21 nM) or 7C11 (4 nM), respectively, or polyclonal antibody (53 nM)
# Details: both partners purified
# T1 sequence (P54958 whole entry, looked up): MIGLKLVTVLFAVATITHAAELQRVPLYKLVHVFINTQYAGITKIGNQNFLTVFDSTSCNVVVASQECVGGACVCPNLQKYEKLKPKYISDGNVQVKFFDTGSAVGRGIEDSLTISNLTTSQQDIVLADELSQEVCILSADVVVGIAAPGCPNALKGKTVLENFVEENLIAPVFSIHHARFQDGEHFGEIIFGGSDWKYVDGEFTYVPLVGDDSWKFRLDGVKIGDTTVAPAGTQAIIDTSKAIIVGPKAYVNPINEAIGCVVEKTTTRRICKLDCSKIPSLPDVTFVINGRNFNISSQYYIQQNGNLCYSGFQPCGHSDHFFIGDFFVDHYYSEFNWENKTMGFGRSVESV
row,binding result,Binder
1,binds,"monoclonal antibody 4C3 (anti-Bla g 2) (antibody, V domains shown, the Fab of mAb 4C3 stands in PDB 3liz (complex with Bla g 2), heavy chain; the Fab of mAb 4C3 stands in PDB 3liz (complex with Bla g 2), light chain; Whole mAb in the assays; the PDB entry holds only the Fab fragment; also called mAb 4C3; biotinylated mAb 4C3) VH: EVQLVESGGGLVQPGGSLKLSCAASGFTFSSFAMSWGRQTPDKRLELVATINSNGASTYYPDTVKGRFTISRDNAKNTLFLQMSSLKSEDTAMYYCTRDPAGRAWFAYWGQGTLVTVSA VL: QIVLTQSPSSMYASLGERVTITCKASQDINNYLSWFQQKPGKSPKTLIYRADRLVDGVPSRVSGSGSGQDYSLTISSLEYEDLGIYYCLQYDELPYTFGGGTKLEIK"
2,binds,"monoclonal antibody 7C11 (anti-Bla g 2) (antibody, V domains shown, the Fab' of mAb 7C11 stands in PDB 2nr6 (complex with Bla g 2), heavy chain; the Fab' of mAb 7C11 stands in PDB 2nr6 (complex with Bla g 2), light chain; Whole mAb in the assays; the PDB entry holds only the Fab' fragment; also called mAb 7C11; biotinylated mAb 7C11) VH: EIQLQQSGAELVKPGASVKLSCTASGFNIKDTYIHWVKQRPEQGLEWIGRIDPANGNTRYGPKFLGKATITADTSSNTAYLHLNSLTSEDTAVYFCARWVRQMDYWGQGTSVTVSS VL: DIVMTQSHKFMSTSVGDRVSITCKASQIVSTAVAWYQQKPGQSPKLLIYSASYRYTGVPDRFTGSGSGTDFTFTISSVQAEDLAVYYCQQHYNSPQTFGGGTKLEIK"
